B1: UNC13B (peptide)
chain: RRFAKTIGKVDMQYADILSKDFPAYC
B2: MRS2 (peptide)
chain: LENYYRLADDLSNAARELRVLIDDSQ
B3: NUP210 (peptide)
chain: VKAVDPTSGQLYGLARELSDEIQVQV
B4: MURC (peptide)
chain: RERLRQSGERLRQSGERLRQSGERFK
B5: NLRP1 (peptide)
chain: LKELDLSGNSLSHSLVKSLCKTLRRP
B6: PANK1 (peptide)
chain: FLRINMVSMKLLAYAMDFWSKGQLKA
B7: HFM1 (peptide)
chain: NNDLSHIAGKLTYASQKYKNHIGTEI
B8: INCA1 (peptide)
chain: DQEEACASRQDHSLASFSTVTARRNP
B9: TLR5 (peptide)
chain: PEDLQDVGWFDHKLSQQILKKEKEKK
B10: C12orf48 (peptide)
chain: QNSRDPFCKAIEEVAQDLDLRIKNII
B11: GRIP1 (peptide)
chain: KFRHDEIISLLKNVGERVVLEVEYEL
B12: RIMBP3 (peptide)
chain: RAELTGLARRLADRLRKLQETNLRAV
B13: MYH6 (peptide)
chain: KANLEKVSRTLEDQANEYRVKLEEAQ
B14: MED17 (peptide)
chain: ELLRLRQHWKLRKVLDKILGDLSYRS
B15: KLHL15 (peptide)
chain: AGDVEGFCSSIHDTSVSAGFRALYEE
B16: RP1L1 (peptide)
chain: HRNTRNLAAFLGKALDLLRFPVKQLY
B17: EPS8 (peptide)
chain: LDDIEFFITKLQKAAEAFSELSKRKK
B18: ABCA13 (peptide)
chain: VDKLKTLSETLLEMSSLFQRSGSGQM
B19: TUBB4Q (peptide)
chain: FTGNNTAVQELKRVLEQFTATFRRKA
B20: TNKS (peptide)
chain: HPKRKQVTELDLRKGANVNEKNKDFM
B21: MED17 (peptide)
chain: ELLRLRQHWKDRKVGDKILGDLSYRS
B22: PCIF1 (peptide)
chain: KDSVEGICSKIYHISLEYVKRIREKH
B23: KIAA0430 (peptide)
chain: NKDGKSVSNRLRRLLDNCGGKVLSIT
B24: USP36 (peptide)
chain: AIKPVSFIRDLKKILRHFRFGNQEDA
B25: INCA1 (peptide)
chain: DQEEACASRQLHSLLSFSTVTARRNP
B26: ANKRD32 (peptide)
chain: ESEVQHLSQKLYDWSDSQNLKITGKA
B27: LYZ (peptide)
chain: VFERCELARTDKRLGMDGYRGISLAN
B28: TLR6 (peptide)
chain: TCELREFVKNIDQVSSEVLEGWPDSY
B29: PLEKHG4 (peptide)
chain: IQRMGKYALLLQELARACGGPTQELS
B30: MYO15A (peptide)
chain: YGRLRPRARSDSKASTAINWLTKKFL
B31: TDRD6 (peptide)
chain: HCQLRSVSQEIHRLSESMAQVYRGST
B32: C6orf223 (peptide)
chain: RGRTRGWVQTLARMLRRTRGPVERAA
B33: NUB1 (peptide)
chain: TDENKKVGLADKDLAKQYSDRLECCE
B34: FEM1A (peptide)
chain: YKGHREIARYLLEQLAQVNRRSAKGN
B35: SLC28A1 (peptide)
chain: SISLTPVAKGLENMGADFLESLEEGQ
B36: C8orf37 (peptide)
chain: TNISWRACDHDRCIACDFLVVSYDDY
B37: USP36 (peptide)
chain: HRTSNVLTLSLKRFLNFSGGKITKDV
B38: ZNFX1 (peptide)
chain: HERCQQPCKRLLICSHKCQEPCIGEC
B39: JAKMIP2 (peptide)
chain: DVNIPDLIKQLDILGDNGNLRNEEQV
B40: TNKS (peptide)
chain: HPKRKQVTELLLRKLANVNEKNKDFM
B41: PPIL6 (peptide)
chain: NGQFLGDALDLQKWAHEVWDIVDIKP
B42: ARHGAP4 (peptide)
chain: EVLAGPLAQRDSHIAEDVGRLVKKSR
B43: RANBP10 (peptide)
chain: TERIILFGRELQALSEQLGREYGKNL
B44: METAP2 (peptide)
chain: GMTMIEICEKLEDCSRKLIKENGLNA
B45: ACAP3 (peptide)
chain: LGRTGQVCLFLKRGLDQHALDQEQRD
B46: SH3GL1 (peptide)
chain: LDYHRQAVQILDELAEKLKRRMREAS
B47: APOL6 (peptide)
chain: KEDLKGNIDKLRALADDIDKTHKKFT
B48: ASB10 (peptide)
chain: GPGTLECAELLLRFGARVDGRSEEEE
B49: NPLOC4 (peptide)
chain: ATKRETAATFLKKVLKEFGFQNNGFS
B50: RIMBP3 (peptide)
chain: RAELTGLARRLADRARKLQETNLRAV
B51: IQGAP3 (peptide)
chain: YGKVKFTAEELSNMASELAKYGLQLP
B52: FOLH1 (peptide)
chain: PFDCRDYAVVLRKYLDKIYSISMKHP
B53: PION (peptide)
chain: DISLSNSGFKLVNFLCDYHQYRDKFS
B54: TRPM7 (peptide)
chain: FERVEQMCIQDKEVGDRVNYIKRSLQ
B55: C4orf22 (peptide)
chain: DFEARKAAIEIARLAERAQQKTLTSA

Biological target: Bcl-xL, Q07817
Test: peptide SPOT array, c-Myc-tagged receptor at 1 uM or 100 nM, anti-c-Myc-Cy3

Sequence of Bcl-xL, Q07817 (Q07817 1-209): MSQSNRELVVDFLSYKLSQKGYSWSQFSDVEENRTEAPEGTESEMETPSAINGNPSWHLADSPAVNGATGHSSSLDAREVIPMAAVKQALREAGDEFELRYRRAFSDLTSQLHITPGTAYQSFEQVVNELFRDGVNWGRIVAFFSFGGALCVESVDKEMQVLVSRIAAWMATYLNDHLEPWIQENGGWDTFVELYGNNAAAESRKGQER

Binder	SPOT signal as a fraction of Bim BH3's signal on the same receptor and array
B1	0.45
B2	0.03
B3	0.02
B4	0.55
B5	0.28
B6	0.11
B7	0.12
B8	0.04
B9	0.05
B10	0.03
B11	0.03
B12	0.39
B13	0.02
B14	0.46
B15	0.02
B16	0.47
B17	0.13
B18	0.03
B19	0.7
B20	0.38
B21	1.2
B22	0.08
B23	0.33
B24	0.42
B25	0.1
B26	0.03
B27	0.22
B28	0.02

Binder	SPOT signal as a fraction of Bim BH3's signal on the same receptor and array
B29	0.08
B30	1.49
B31	0.04
B32	0.66
B33	0.02
B34	0.81
B35	0.02
B36	0.03
B37	0.35
B38	0.03
B39	0.02
B40	0.43
B41	0.03
B42	0.04
B43	0.03
B44	0.03
B45	0.29
B46	0.05
B47	0.17
B48	0.03
B49	0.48
B50	0.58
B51	0.05
B52	0.44
B53	0.17
B54	0.03
B55	0.04
